Experimental data: patent US20120276193A1 (CYTOGUIDE A S, published 2012)

Key:
[1] = target: human CD163 on cells (human) (UniProt Q86VB7); experiment: flow cytometry, peripheral blood dendritic cells, negative staining control
[2] = target: human CD163 on cells (human) (UniProt Q86VB7); experiment: flow cytometry, PE mAb, CD163+ peripheral blood dendritic cells
[3] = target: human CD163 on cells (human) (UniProt Q86VB7); experiment: flow cytometry, mononuclear cells from buffy coat, Mac2-158-FITC with KN2/NRY-Alexa Fluor647
[4] = target: human CD163 on cells (human) (UniProt Q86VB7); experiment: flow cytometry, human mononuclear cells from buffy coats stained with Mac2-158-FITC, anti-CD14-PE and KN2/NRY-Alexa Fluor647
[5] = target: human CD163 on cells (human) (UniProt Q86VB7); experiment: quantitative flow cytometry, fresh whole blood, citrate as anticoagulant
[6] = target: human CD163 on cells (human) (UniProt Q86VB7); experiment: flow cytometry, R-PE mAb, fresh EDTA whole blood
[7] = target: human CD163 on cells (human) (UniProt Q86VB7); experiment: 125I-labelled mAb on stable CD163 transfected Flp-In CHO cells (non-transfected cells: 1.37%)
[8] = target: human CD163 on cells (human) (UniProt Q86VB7); experiment: quantitative flow cytometry (Quantibrite PE beads), fresh EDTA whole blood
[9] = target: human CD163 on cells (human) (UniProt Q86VB7); experiment: quantitative flow cytometry, PBMC isolated by density gradient centrifugation
[10] = target: human CD163 on cells (human) (UniProt Q86VB7); experiment: flow cytometry, fresh whole blood, EDTA as anticoagulant
[11] = target: human CD163 on cells (human) (UniProt Q86VB7); experiment: flow cytometry, fresh whole blood, citrate as anticoagulant
[12] = target: human CD163 on cells (human) (UniProt Q86VB7); experiment: flow cytometry, fresh whole blood, heparin as anticoagulant
[13] = target: human CD163 on cells (human) (UniProt Q86VB7); experiment: quantitative flow cytometry, fresh whole blood, heparin as anticoagulant
[14] = target: human CD163 on cells (human) (UniProt Q86VB7); experiment: flow cytometry, PBMC isolated by density gradient centrifugation
[15] = target: human CD163 on cells (human) (UniProt Q86VB7); experiment: flow cytometry, PE mAb, CD14-ILT3+ dendritic cells in whole blood
[16] = target: purified recombinant CD163 immobilized on a Biacore chip (human) (UniProt Q86VB7); experiment: SPR, immobilized recombinant CD163, 10 mM EDTA buffer
[17] = target: human CD163 on cells (human) (UniProt Q86VB7); experiment: flow cytometry, CD163high subset of peripheral blood dendritic cells; clone GHI/61 by paragraph 356
[18] = target: human CD163 on cells (human) (UniProt Q86VB7); experiment: flow cytometry, CD163low subset of peripheral blood dendritic cells; clone GHI/61 by paragraph 356
[19] = target: human CD163 on cells (human) (UniProt Q86VB7); experiment: 125I-labelled mAb on stable CD163 transfected Flp-In CHO cells (non-transfected cells: 1.23%)
[20] = target: human CD163 on cells (human) (UniProt Q86VB7); experiment: flow cytometry, CD14+ILT3+HLA-DR+ monocytes; clone GHI/61 by paragraph 356
[21] = target: human CD163 on cells (human) (UniProt Q86VB7); experiment: quantitative flow cytometry, fresh whole blood, EDTA as anticoagulant
[22] = target: purified recombinant CD163 immobilized on a Biacore chip (human) (UniProt Q86VB7); experiment: SPR, immobilized recombinant CD163, 2 mM free Ca2+
[23] = target: human CD163 on cells (human) (UniProt Q86VB7); experiment: 125I-labelled mAb on stable CD163 transfected Flp-In CHO cells (non-transfected cells: 1.47%)
[24] = target: human CD163 on cells (human) (UniProt Q86VB7); experiment: quantitative flow cytometry (Quantibrite PE beads), fresh EDTA whole blood, isotype control
[25] = target: rat CD163 on cells (rat) (UniProt D3Z9U2); experiment: flow cytometry, rat peritoneal macrophages, negative control staining with IgG-FITC
[26] = target: rat CD163 on cells (rat) (UniProt D3Z9U2); experiment: flow cytometry, rat peritoneal macrophages, ED2-FITC
[27] = target: rat CD163 on cells (rat) (UniProt D3Z9U2); experiment: flow cytometry, rat peritoneal macrophages stained with anti-rat CD172a-PE (ED9) and anti-rat CD163-FITC (ED2)
[28] = target: T1, murine CD163 in solubilized murine spleen (mouse, UniProt Q2VLH6 39-1121, limits assumed); experiment: western blot of solubilized murine spleen with hybridoma supernatants
T1 construct: also called non-reduced CD163
Source text: The clones were screened by testing binding of supernatants to murine CD163 in solubilized murine spleen loaded on a SDS-PAGE and western blotted, using standard techniques.

Chain of purified recombinant CD163 immobilized on a Biacore chip (human) (Q86VB7 42-1050 limits assumed): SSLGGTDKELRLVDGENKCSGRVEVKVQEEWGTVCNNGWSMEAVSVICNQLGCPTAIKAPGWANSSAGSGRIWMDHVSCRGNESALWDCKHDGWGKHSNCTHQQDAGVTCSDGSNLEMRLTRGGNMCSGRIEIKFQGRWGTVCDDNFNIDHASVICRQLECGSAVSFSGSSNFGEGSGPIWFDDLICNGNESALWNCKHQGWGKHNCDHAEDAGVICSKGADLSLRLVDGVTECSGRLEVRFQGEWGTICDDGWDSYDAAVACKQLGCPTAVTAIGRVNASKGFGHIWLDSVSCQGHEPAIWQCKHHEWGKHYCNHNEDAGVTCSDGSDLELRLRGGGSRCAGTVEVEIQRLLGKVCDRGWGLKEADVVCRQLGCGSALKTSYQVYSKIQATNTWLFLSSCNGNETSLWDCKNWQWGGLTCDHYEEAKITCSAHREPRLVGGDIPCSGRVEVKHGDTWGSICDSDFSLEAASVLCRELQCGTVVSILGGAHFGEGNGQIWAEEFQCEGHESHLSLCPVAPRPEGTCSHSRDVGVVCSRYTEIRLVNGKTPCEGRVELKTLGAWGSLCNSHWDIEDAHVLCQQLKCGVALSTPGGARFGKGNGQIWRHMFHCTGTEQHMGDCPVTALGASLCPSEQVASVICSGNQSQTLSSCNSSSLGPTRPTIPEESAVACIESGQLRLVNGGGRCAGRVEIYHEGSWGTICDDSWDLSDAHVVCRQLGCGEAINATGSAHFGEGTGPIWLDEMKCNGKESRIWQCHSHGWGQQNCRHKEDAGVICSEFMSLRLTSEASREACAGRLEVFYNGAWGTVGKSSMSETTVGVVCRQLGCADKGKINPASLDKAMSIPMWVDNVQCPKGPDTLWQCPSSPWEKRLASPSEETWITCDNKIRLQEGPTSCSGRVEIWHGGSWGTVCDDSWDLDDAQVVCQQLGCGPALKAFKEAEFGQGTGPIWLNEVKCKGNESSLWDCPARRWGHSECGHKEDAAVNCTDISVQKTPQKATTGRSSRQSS
T1 sequence (Q2VLH6 39-1121 limits assumed): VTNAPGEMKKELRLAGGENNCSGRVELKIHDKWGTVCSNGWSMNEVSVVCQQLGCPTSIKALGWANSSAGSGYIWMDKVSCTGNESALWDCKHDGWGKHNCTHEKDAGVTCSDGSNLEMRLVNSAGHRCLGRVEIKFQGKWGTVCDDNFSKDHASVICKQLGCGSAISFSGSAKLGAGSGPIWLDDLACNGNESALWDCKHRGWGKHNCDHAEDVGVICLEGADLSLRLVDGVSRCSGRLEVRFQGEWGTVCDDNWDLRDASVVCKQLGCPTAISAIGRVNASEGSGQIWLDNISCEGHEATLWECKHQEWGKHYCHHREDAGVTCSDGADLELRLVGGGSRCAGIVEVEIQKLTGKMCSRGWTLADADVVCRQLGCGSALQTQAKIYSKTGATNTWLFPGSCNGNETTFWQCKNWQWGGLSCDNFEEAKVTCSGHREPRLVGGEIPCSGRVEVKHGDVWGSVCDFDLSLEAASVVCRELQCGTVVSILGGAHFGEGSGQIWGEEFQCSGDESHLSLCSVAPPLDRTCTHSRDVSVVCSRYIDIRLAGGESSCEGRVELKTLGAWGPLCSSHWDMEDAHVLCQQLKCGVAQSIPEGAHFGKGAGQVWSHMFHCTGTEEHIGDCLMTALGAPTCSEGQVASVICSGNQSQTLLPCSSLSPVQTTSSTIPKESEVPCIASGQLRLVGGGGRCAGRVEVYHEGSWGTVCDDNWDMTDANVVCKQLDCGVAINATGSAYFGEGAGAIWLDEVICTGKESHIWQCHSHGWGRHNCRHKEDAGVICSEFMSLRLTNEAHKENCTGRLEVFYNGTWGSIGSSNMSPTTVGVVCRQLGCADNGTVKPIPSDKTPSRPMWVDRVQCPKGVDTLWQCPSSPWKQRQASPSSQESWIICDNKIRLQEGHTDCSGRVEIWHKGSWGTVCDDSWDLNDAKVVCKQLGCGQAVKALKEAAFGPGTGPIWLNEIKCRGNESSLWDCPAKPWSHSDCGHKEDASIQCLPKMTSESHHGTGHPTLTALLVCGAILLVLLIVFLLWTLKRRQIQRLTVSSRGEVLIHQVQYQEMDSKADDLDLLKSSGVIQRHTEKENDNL

**Q.** Which MFI [1] does the source give for “Mouse IgG, PE, k isotype control, MOPC-21 (antibody)” here?
**A.** The MFI was 1.23 MFI.

**Q.** Which results are given for Mac2-158 (antibody)?
**A.** MFI [2]: 108 MFI; percent of peripheral monocytes showing co-binding of KN2/NRY and Mac2-158 [3]: 70%; share of cells in the lower right quadrant (Mac2-158-FITC positive, CD14-PE negative) [4]: 1.22%; share of cells in the lower right quadrant (Mac2-158-FITC positive, KN2/NRY-Alexa Fluor 647 negative) [4]: 4.45%; share of cells in the upper right quadrant (Mac2-158-FITC positive, CD14-PE positive) [4]: 73.9%; share of cells in the upper right quadrant (positive for both Mac2-158-FITC and KN2/NRY-Alexa Fluor 647) [4]: 70.7%; density of CD163 receptors per monocyte (PE antibodies bound per cell) [5]: 17700 per monocyte; fraction of CD14+ monocytes stained positive for CD163 [6]: 84.1%; percentage of cell-associated radioactivity [7]: 61.3%; density of CD163 receptors per monocyte (PE antibodies bound per cell) [8]: 17700 per monocyte; density of CD163 receptors per monocyte (PE antibodies bound per cell) [9]: 11400 per monocyte; fraction of CD14+ monocytes stained positive for CD163 [10]: 87.2%; fraction of CD14+ monocytes stained positive for CD163 [11]: 84%; fraction of CD14+ monocytes stained positive for CD163 [12]: 84.4%; density of CD163 receptors per monocyte (PE antibodies bound per cell) [13]: 18900 per monocyte; fraction of CD14+ monocytes stained positive for CD163 [14]: 81.1%; fraction of peripheral blood dendritic cells recognized [15]: 32.3%

**Q.** Which MFI [2] does the source give for GHI/61 (antibody) here?
**A.** Its MFI is 22.3 MFI.

**Q.** What about the Kd [16] of the same molecule?
**A.** Its Kd is 29 nM.

**Q.** And the MFI [17]?
**A.** The MFI was 34.6 MFI.

**Q.** And the density of CD163 receptors per monocyte (PE antibodies bound per cell) [5]?
**A.** The density of CD163 receptors per monocyte (PE antibodies bound per cell) was 1150 per monocyte.

**Q.** What about the fraction of CD14+ monocytes stained positive for CD163 [6] of the same molecule?
**A.** The fraction of CD14+ monocytes stained positive for CD163 was 63%.

**Q.** And the MFI [18]?
**A.** Its MFI is 4.2 MFI.

**Q.** And the percentage of cell-associated radioactivity [19]?
**A.** The percentage of cell-associated radioactivity was 1.23%.

**Q.** What about the density of CD163 receptors per monocyte (PE antibodies bound per cell) [8] of the same molecule?
**A.** The density of CD163 receptors per monocyte (PE antibodies bound per cell) was 1030 per monocyte.

**Q.** And the percent of cells stained positive [20]?
**A.** Its percent of cells stained positive is 88%.

**Q.** What about the density of CD163 receptors per monocyte (PE antibodies bound per cell) [9] of the same molecule?
**A.** The density of CD163 receptors per monocyte (PE antibodies bound per cell) was 108 per monocyte.

**Q.** And the fraction of CD14+ monocytes stained positive for CD163 [11]?
**A.** Its fraction of CD14+ monocytes stained positive for CD163 is 64.4%.

**Q.** What about the fraction of CD14+ monocytes stained positive for CD163 [12] of the same molecule?
**A.** Its fraction of CD14+ monocytes stained positive for CD163 is 0.82%.

**Q.** What about the density of CD163 receptors per monocyte (PE antibodies bound per cell) [13] of the same molecule?
**A.** Its density of CD163 receptors per monocyte (PE antibodies bound per cell) is 58.3 per monocyte.

**Q.** What about the fraction of CD14+ monocytes stained positive for CD163 [14] of the same molecule?
**A.** The fraction of CD14+ monocytes stained positive for CD163 was 1.26%.

**Q.** And the fraction of peripheral blood dendritic cells recognized [15]?
**A.** Its fraction of peripheral blood dendritic cells recognized is 10.5%.

**Q.** Which density of CD163 receptors per monocyte (PE antibodies bound per cell) [5] does the source give for RM3/1 (antibody) here?
**A.** The density of CD163 receptors per monocyte (PE antibodies bound per cell) was 207 per monocyte.

**Q.** And the fraction of CD14+ monocytes stained positive for CD163 [6]?
**A.** Its fraction of CD14+ monocytes stained positive for CD163 is 0.33%.

**Q.** And the density of CD163 receptors per monocyte (PE antibodies bound per cell) [21]?
**A.** The density of CD163 receptors per monocyte (PE antibodies bound per cell) was 86 per monocyte.

**Q.** What about the Kd [22] of the same molecule?
**A.** The Kd was 0.6 nM.

**Q.** What about the density of CD163 receptors per monocyte (PE antibodies bound per cell) [8] of the same molecule?
**A.** The density of CD163 receptors per monocyte (PE antibodies bound per cell) was 101 per monocyte.

**Q.** What about the density of CD163 receptors per monocyte (PE antibodies bound per cell) [9] of the same molecule?
**A.** The density of CD163 receptors per monocyte (PE antibodies bound per cell) was 132 per monocyte.

**Q.** And the fraction of CD14+ monocytes stained positive for CD163 [11]?
**A.** Its fraction of CD14+ monocytes stained positive for CD163 is 12.5%.

**Q.** What about the fraction of CD14+ monocytes stained positive for CD163 [12] of the same molecule?
**A.** The fraction of CD14+ monocytes stained positive for CD163 was 3.33%.

**Q.** What about the density of CD163 receptors per monocyte (PE antibodies bound per cell) [13] of the same molecule?
**A.** The density of CD163 receptors per monocyte (PE antibodies bound per cell) was 210 per monocyte.

**Q.** What about the fraction of CD14+ monocytes stained positive for CD163 [14] of the same molecule?
**A.** The fraction of CD14+ monocytes stained positive for CD163 was 2.5%.

**Q.** What about the percentage of cell-associated radioactivity [23] of the same molecule?
**A.** The percentage of cell-associated radioactivity was 7.77%.

**Q.** For “R-PE-conjugated Mouse IgG1, k isotype control (MCG1) (antibody)”, which background staining (PE antibodies bound per cell) [24] is on record?
**A.** Its background staining (PE antibodies bound per cell) is 94 per monocyte.

**Q.** Which results are given for IgG-FITC (antibody)?
**A.** share of cells in the lower right quadrant (IgG FITC positive) [25]: 0.41%; share of cells in the upper right quadrant [25]: 0.06%

**Q.** ED2 (antibody) was tested. Which percent of peritoneal macrophages CD163 positive [26] did it give?
**A.** The percent of peritoneal macrophages CD163 positive was 42%.

**Q.** And the share of cells in the lower right quadrant (CD163 FITC positive, CD172a PE negative) [27]?
**A.** Its share of cells in the lower right quadrant (CD163 FITC positive, CD172a PE negative) is 0.01%.

**Q.** What about the share of cells in the upper right quadrant (CD163 FITC positive, CD172a PE positive) [27] of the same molecule?
**A.** The share of cells in the upper right quadrant (CD163 FITC positive, CD172a PE positive) was 42.9%.

B1: 3E10B10 (antibody, V domains shown)
VH: QVKLQESGGGLVQPKESLKISCAASGFTFSTAAMYWVRQAPGKGLDWVARIRTKPDNYATYYPASVKGRFTISRDDSKGMVYLQMDNLKTEDTAIYYCTAAYYYDGRFDYWGQGVMVTVAS
VL: DIVMTQTPSSQAVSAGERVTMRCKSSQSLLYSENKKNYLAWYQQKPGQSPKLLISWASTRESGVPDRFIGSGSGTDFTLTISSVQAEDLAVYYCDQYYDPPFTFGSGTKLEIK
notes: Rat IgG2a hybridoma antibody raised against mouse CD163 domain 1-3; also called rat anti-mouse E10B10 (IgG2a)
**Q.** Does B1 bind [28]?
**A.** Result: binds
